Source: paper PMC7396438
Values joined by “and” are separate entries in the source; they are usually repeats but may differ in a detail not shown here. Equal values may be shown once.

Columns and labels:
Assay in all cases: cross-linking; in vivo photo-cross-linking in BamA mutant strains (chromosomal bamA replaced; pBpa at 64, at 132, or at both); blot with antibodies against SurA, bands quantified with ImageJ against nonspecific bands as internal control; repeated twice
[1] = biological target: BamA-R64pBpa (E. coli) (UniProt P0A940)
[2] = biological target: BamA-D132pBpa (E. coli) (UniProt P0A940)
[3] = biological target: BamA-R64&D132pBpa (E. coli) (UniProt P0A940)

Sequence of SurA (P0ABZ6 21-428): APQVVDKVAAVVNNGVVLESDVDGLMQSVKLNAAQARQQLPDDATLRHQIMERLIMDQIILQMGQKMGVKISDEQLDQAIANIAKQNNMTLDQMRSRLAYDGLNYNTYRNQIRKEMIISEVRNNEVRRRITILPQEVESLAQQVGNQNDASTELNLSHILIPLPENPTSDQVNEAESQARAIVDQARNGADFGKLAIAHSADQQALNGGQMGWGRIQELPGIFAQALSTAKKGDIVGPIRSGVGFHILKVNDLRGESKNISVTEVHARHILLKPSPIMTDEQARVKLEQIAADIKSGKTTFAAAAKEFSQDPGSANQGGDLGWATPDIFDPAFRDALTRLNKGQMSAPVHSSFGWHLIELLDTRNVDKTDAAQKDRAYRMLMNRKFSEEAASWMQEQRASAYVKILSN

“SurA (from UniProt P0ABZ6 21-428) (natural protein)” was tested, and the amount of cross-linked product (ImageJ, against nonspecific bands) [1] was 1.97, the amount of cross-linked product (ImageJ, against nonspecific bands) [2] was 2.12 and the amount of cross-linked product (ImageJ, against nonspecific bands) [3] was 1 and 1.02. It also gave a stoichiometry N [3] of 1 and a sum of the amounts of the two cross-linked products (ImageJ) [3] of 2.02.
